Kd data for one molecule are collected here from paper PMC4621360 (2015).

This test addresses FSFG-K (single FSFG site) (Saccharomyces cerevisiae, UniProt P14907). The test can be described thus: NMR.

B1: Kap95 (protein)
chain: STAEFAQLLENSILSPDQNIRLTSETQLKKLSNDNFLQFAGLSSQVLIDENTKLEGRILAALTLKNELVSKDSVKTQQFAQRWITQVSPEAKNQIKTNALTALVSIEPRIANAAAQLIAAIADIELPHGAWPELMKIMVDNTGAEQPENVKRASLLALGYMCESADPQSQALVSSSNNILIAIVQGAQSTETSKAVRLAALNALADSLIFIKNNMEREGERNYLMQVVCEATQAEDIEVQAAAFGCLCKIMSLYYTFMKPYMEQALYALTIATMKSPNDKVASMTVEFWSTICEEEIDIAYELAQFPQSPLQSYNFALSSIKDVVPNLLNLLTRQNEDPEDDDWNVSMSAGACLQLFAQNCGNHILEPVLEFVEQNITADNWRNREAAVMAFGSIMDGPDKVQRTYYVHQALPSILNLMNDQSLQVKETTAWCIGRIADSVAESIDPQQHLPGVVQACLIGLQDHPKVATNCSWTIINLVEQLAEATPSPIYNFYPALVDGLIGAANRIDNEFNARASAFSALTTMVEYATDTVAETSASISTFVMDKLGQTMSVDENQLTLEDAQSLQELQSNILTVLAAVIRKSPSSVEPVADMLMGLFFRLLEKKDSAFIEDDVFYAISALAASLGKGFEKYLETFSPYLLKALNQVDSPVSITAVGFIADISNSLEEDFRRYSDAMMNVLAQMISNPNARRELKPAVLSVFGDIASNIGADFIPYLNDIMALCVAAQNTKPENGTLEALDYQIKVLEAVLDAYVGIVAGLHDKPEALFPYVGTIFQFIAQVAEDPQLYSEDATSRAAVGLIGDIAAMFPDGSIKQFYGQDWVIDYIKRTRSGQLFSQATKDTARWAREQQKRQLSL
The term Kd denotes the concentration at which binding is half-saturated. A higher Kd goes with a looser complex. Take B1: the dissociation constant (Kd) was more than 216 µM.
